The results in this text go back to patent US20080014635A1.

In general, pKd refers to the negative decadic logarithm of the Kd, by convention in mol/L.

Experiment [1] deals with wild-type TNFrED-agglutinin fusion displayed on the surface of S. cerevisiae BJ2168 (human). Kind of experiment: saturation binding of [125I]TNF-α to yeast displaying wild-type TNFrED, best-fit values box; axis 'Bound' has no unit [A].
In experiment [2] the target is mutant clone 6 (TNFrED H23P + S46I)-agglutinin fusion displayed on yeast (human). Kind of experiment: saturation binding of [125I]TNF-α to yeast displaying mutant clone 6, best-fit values box; axis 'Bound' has no unit [B].
For experiment [3], the target named is mutant clone 11 (TNFrED S76P)-agglutinin fusion displayed on yeast (human). Kind of experiment: saturation binding of [125I]TNF-α to yeast displaying mutant clone 11, best-fit values box; axis 'Bound' has no unit [C].
Experiment [4] deals with mutant clone 6 (TNFrED H23P + S46I)-agglutinin fusion displayed on yeast (human). Kind of experiment: saturation binding of [125I]TNF-α to yeast displaying mutant clone 6, best-fit values box; the box prints no unit, the concentration axis is TNF-α [nM] [B].
Experiment [5] deals with wild-type TNFrED-agglutinin fusion displayed on the surface of S. cerevisiae BJ2168 (human). Kind of experiment: flow cytometry of yeast, biotinylated hTNF-α detected with FITC-avidin (FL1-H); vector-only pYES2 yeast in the left panel: Left Half= 98.58% [B]. In general terms: In flow cytometry, cells or beads pass a laser one at a time.
The target is the same in experiment [6]. In words: saturation binding of [125I]TNF-α to yeast displaying wild-type TNFrED, best-fit values box; the box prints no unit, the concentration axis is TNF-α [nM] [A].
The target is the same in experiment [7]. Kind of experiment: flow cytometry of yeast, biotinylated hTNF-α detected with FITC-avidin (FL1-H); gate line at FL1-H just below 10^1; vector-only pYES2 yeast in the left panel: Right Half= 1.42% [B].

pKd: −log10 of the molar value.

Sequence of wild-type TNFrED-agglutinin fusion displayed on the surface of S. cerevisiae BJ2168 (human) (P20840 other isoform, or with tags, fused parts or gaps, form in doubt): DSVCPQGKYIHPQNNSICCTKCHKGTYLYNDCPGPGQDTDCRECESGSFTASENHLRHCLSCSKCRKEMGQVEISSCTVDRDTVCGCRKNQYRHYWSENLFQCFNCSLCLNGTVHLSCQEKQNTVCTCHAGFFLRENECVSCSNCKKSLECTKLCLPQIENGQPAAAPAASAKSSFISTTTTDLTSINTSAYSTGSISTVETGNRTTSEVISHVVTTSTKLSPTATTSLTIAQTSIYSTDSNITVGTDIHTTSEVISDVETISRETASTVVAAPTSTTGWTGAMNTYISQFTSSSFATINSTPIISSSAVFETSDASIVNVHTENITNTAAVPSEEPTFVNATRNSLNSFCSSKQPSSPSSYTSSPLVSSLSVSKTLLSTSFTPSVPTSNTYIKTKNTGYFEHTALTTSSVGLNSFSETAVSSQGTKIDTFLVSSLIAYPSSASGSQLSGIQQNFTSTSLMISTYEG
Sequence of mutant clone 6 (TNFrED H23P + S46I)-agglutinin fusion displayed on yeast (human) (P20840 other isoform, or with tags, fused parts or gaps H23P S46I H23P S46I, form in doubt): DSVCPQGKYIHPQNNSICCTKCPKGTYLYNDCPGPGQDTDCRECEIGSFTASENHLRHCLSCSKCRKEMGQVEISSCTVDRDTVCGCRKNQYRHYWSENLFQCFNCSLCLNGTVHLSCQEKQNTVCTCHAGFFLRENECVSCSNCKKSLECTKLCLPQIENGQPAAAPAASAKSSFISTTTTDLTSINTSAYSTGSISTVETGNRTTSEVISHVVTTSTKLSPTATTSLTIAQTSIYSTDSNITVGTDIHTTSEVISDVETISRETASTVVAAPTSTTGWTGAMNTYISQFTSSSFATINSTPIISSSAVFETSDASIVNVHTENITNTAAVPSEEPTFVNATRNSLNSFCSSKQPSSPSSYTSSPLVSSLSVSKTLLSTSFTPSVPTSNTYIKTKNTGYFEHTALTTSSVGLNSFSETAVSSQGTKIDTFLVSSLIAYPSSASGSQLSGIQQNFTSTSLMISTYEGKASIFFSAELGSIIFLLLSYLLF
Sequence of mutant clone 11 (TNFrED S76P)-agglutinin fusion displayed on yeast (human) (P20840 other isoform, or with tags, fused parts or gaps S76P S76P, form in doubt): as the sequence (P20840 other isoform, or with tags, fused parts or gaps H23P S46I H23P S46I, form in doubt) above, with P23H, I46S, S76P counted along it

Take “human TNF-α (hTNF-α) (from UniProt P01375 77-233) (ligand)”: the BMAX came to 0.0645 in experiment [1], 0.334 in experiment [2] and 0.127 in experiment [3]. Besides, the pKd in experiment [4] is 8.77; in experiment [6], 8.69. In experiment [5], this substance displayed a Left Half (percent of yeast cells left of the FL1-H gate) of 89.1%. Further, the Right Half (percent of yeast cells right of the FL1-H gate) in experiment [7] amounted to 10.9%.
